US6933132

What was measured:
[1] = target: surface of a PHA-activated T cell (unidentified binding site for soluble attractin-1); experiment: Scatchard analysis, 125I-labeled soluble attractin on cells, 1 hr at 4 C
[2] = target: surface of a resting T cell (unidentified binding site for soluble attractin-1); experiment: as above

“purified natural serum soluble attractin-1, 125I-labeled (from UniProt O75882 1-1267) (ligand)” was tested, and the Kd [1] was 0.005 to 0.05 nM, the molecules bound per cell (molecules per cell) [1] was 2000 and the Kd [2] was 0.005 to 0.05 nM. For the same substance, the molecules bound per cell (molecules per cell) [2] was 1000.
